The source of these data is US20190367592A1 (AC IMMUNE, published 2019).

The target in assay [1] is T1, recombinant human Tau monomer, 2N4R isoform (amino acids 2-441) (human, UniProt P10636-8 2-441).
T1 construct: range 2-441; N-terminal His-tag removed with TEV protease; also called monomeric Tau
Briefly: SPR, mIgG2a captured, Tau monomer analyte, 1:1 fit. The text has this: Antibody heavy and light chains were constructed via gene synthesis and subcloning of the resulting DNA into murine IgG2a (heavy chain) and murine kappa (light chain) mammalian expression vectors. Antibodies were expressed in CHO or 293T cells by transient co-transfection of the heavy chain and light chain plasmids and were purified with affinity resin MabSelectSure (GE Healthcare Life Sciences). Purified recombinant antibodies were screened for binding to Tau monomer protein on a Biacore T200 surface plasmon resonance instrument using a mouse IgG capture kit and a Series S CM5 chip. Antibodies in mIgG2a format diluted in 10 mM HEPES pH7.4, 150 mM NaCl, 0.05% Tween 20 (running buffer, HBSP) were captured for 30 or 45 seconds at a concentration of 1 μg/ml (antibodies 26C1, 94B2-C1, 52F6-F11.v1, 52F6-F11.v2, 11E10-B8, 55E7-F11, 125B1-H3, 123E9-A1, 30G1-B2, 66F5-A1, 89F4-A1, 93A8-D2 and 126F11-G11) or for 70 or 150 seconds at a concentration of 0.1 μg/ml (antibodies 19H6-F7, 3A4-H4, 54C1-H11 and 37D3-H9) using a flow rate of 10 μl/min. […] Association and dissociation times were monitored for 180-480 seconds and for 300-600 seconds respectively. Antibody 37D3-H9 was selected for further analysis due to the high affinity (Table 6) and the absence of NXS/T glycosylation motifs in the CDRs.

The target in assay [2] is T1, recombinant human Tau monomer, 2N4R …. Briefly: SPR; Normalized Rmax post-stress (2 weeks 40 C) / pre-stress. The protocol: (§1) Briefly, IgGs in 1 mL culuture were captured using tip columns that were custom packed with 20 μL MabSelect SuRe resin (Glygen Corp & GE Healthcare). After washing with 1×PBS pH 7.4, IgGs were eluted into 160 μL of 50 mM phosphoric acid pH 3 and neutralized with 12 μL of 20×PBS pH 11. MabSelect SuRe tip columns were stripped in 0.1 M NaOH and regenerated with 1×PBS pH 7.4 for consecutive use of up to 15 times. Purified antibodies in 96-well format were normalized to 0.1 mg/ml using a Hamilton Star liquid handling robot. The “pre-stress” samples were kept at approximately 4° C. and the “post-stress” samples were incubated at 40° C. for two weeks in a PCR machine. Functional stability of the variants was compared by running surface plasmon resonance kinetics experiments with the “pre-stress” and “post-stress” antibody preps. The antibodies were assessed using a human antibody capture CM5 Series S chip generated using the GE Biacore human IgG capture kit and a Biacore T200 instrument. Antibodies diluted to 2 μg/ml were immobilized using a 15 second injection time and 10 μl/min flow rate. Binding to Tau monomer at 0 nM, 26.5 nM and 265 nM, at 25° C., using a flow rate of 40 μl/min, was monitored for a 180 second association phase followed by a 300 second dissociation phase. Samples were run in 10 mM HEPES pH7.4, 150 mM NaCl, 0.05% Tween 20 (HBSP) using a multi-cycle kinetics format. Data was analyzed using BIAevaluation software, fitting a 1:1 binding model. The resulting affinity (KD) values are shown in FIG. 8A-D. A Stability Index was also calculated, using the rationale that affinity-compromised antibodies (due for example to deamidation of key residues) are expected to contribute equally to the IgG capture level (“Ligand Level”) but to contribute less to the measured Tau binding, and that this would be reflected in the experimentally derived value for Rmax. To account for variations in the amount of each antibody captured, Rmax was normalized for the antibody capture level (as measured by “Ligand Level”, Response Units immobilized during antibody capture). Thus Normalized Rmax is calculated as the experimental Rmax (units=RU) divided by the “Ligand Level” (Evaluation output representing the RU captured during the hIgG capture step, units=RU), and Stability Index is calculated here as Normalized Rmax (post-stress) divided by Normalized Rmax (pre-stress).

Assay [3] shares this target. Briefly: SPR, captured IgG, Tau monomer analyte, 1:1 model; fit-quality column: Yes. How it is done:
as §1

Residue numbers refer to the chain shown, from its start.

T1 sequence (P10636 other isoform, or with tags, fused parts or gaps limits assumed): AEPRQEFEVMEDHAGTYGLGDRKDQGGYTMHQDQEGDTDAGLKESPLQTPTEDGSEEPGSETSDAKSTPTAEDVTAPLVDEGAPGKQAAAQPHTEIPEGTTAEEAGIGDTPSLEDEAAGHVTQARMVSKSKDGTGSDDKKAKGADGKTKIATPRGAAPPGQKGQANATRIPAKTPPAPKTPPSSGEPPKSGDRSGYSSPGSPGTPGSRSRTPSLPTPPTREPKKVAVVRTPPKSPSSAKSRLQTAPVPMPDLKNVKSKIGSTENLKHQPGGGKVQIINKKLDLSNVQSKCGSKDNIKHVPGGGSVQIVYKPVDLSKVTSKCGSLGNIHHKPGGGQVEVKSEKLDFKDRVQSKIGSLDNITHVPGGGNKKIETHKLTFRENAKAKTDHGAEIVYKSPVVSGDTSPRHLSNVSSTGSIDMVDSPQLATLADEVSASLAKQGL

B1: 30G1-B2 (antibody, mouse IgG2a, V domains shown)
VH: QVQLQQSGAELVRPGASVTLSCKASGYTFTDYEMYWVKQTPVHGLEWIGAIDPETGDTAYNQKFKGKATLTADKSSNTAYMELRSLTSEDSAVYYCIRQYGNWFPYWGQGTLVTVSA
VL: DVVMTQTPLSLPVSLGDQASISCRSSQSLVHANGNTYLHWFLQKPGLSPKLLIYKVSNRFSGVPDRFSGGGSGTDFTLKITRLEAEDLGVYFCSQSTHVPFTFGSGTKLEIK
For B1, in assay [1], the Kd was 20 nM, the koff came out at 0.008 s⁻¹ and the kon was 400000 M⁻¹ s⁻¹.

B2: 66F5-A1 (antibody, mouse IgG2a, V domains shown)
VH: QVQLQQSGAELVRPGASVTLSCKASGYTFIDYEMNWVKQTPVHGLEWIGAIDPENGGTAYNQKFKGKAIVTADKSSSTAYMELRSLTSEDSAVYYCSGPHFDYWGQGTTLTVSS
VL: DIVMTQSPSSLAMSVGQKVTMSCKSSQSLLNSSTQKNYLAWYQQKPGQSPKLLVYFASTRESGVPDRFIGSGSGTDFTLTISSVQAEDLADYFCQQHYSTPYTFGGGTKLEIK
With B2, in assay [1], the Kd was 105 nM, the koff came to 0.008 s⁻¹ and the kon was 80000 M⁻¹ s⁻¹.

B3: hu37D3.v28.A20 (antibody, V domains shown)
VH: EVQLVESGGGLVQPGGSLRLSCAASGLIFRSYGMSWVRQAPGKGLEWVATINSGGTYTYYPDSVKGRFTISRDNSKNTLYLQMNSLRAEDTAVYYCANSYSGAMDYWGQGTLVTVSS
VL: DVVLTQTPLSLPVTPGQPASISCRSSQSIVHSNGNTYLEWYLQKPGQSPQLLIYKVSNRFSGVPDRFSGSGSGTDFTLKISRVEAEDVGVYYCFQGSLVPWTFGQGTKVEIK
On to B3, for which the “Stability Index” value in assay [2] was 93%. In assay [3], the Kd is 7.1 nM.

B4: hu37D3.v28.A24 (antibody, V domains shown)
VH: B3 VH
VL: B3 VL with L4M, L38F
On to B4, for which the “Stability Index” value in assay [2] came to 95%. The Kd in assay [3] was 4.7 nM.

B5: hu37D3.v28.A22 (antibody, V domains shown)
VH: B3 VH
VL: B3 VL with L98H
Turning to B5, the “Stability Index” value in assay [2] turned out to be 70%. Moreover, in assay [3], the Kd amounted to 27.8 nM.

B6: hu37D3.v28.A26 (antibody, V domains shown)
VH: B3 VH
VL: B3 VL with L4M, L38F, L98H
On to B6, for which the “Stability Index” value in assay [2] was found to be 78%. Further, the dissociation constant Kd in assay [3] was 22.5 nM.

B7: hu37D3.v28.A28 (antibody, V domains shown)
VH: B3 VH
VL: B3 VL with L4M
B7: in assay [2], the “Stability Index” value came to 89%. Also, the Kd in assay [3] came out at 11.4 nM.

B8: 11E10-B8 (antibody, mouse IgG2a, V domains shown)
VH: EVQLVESGGDLVKPGGSLKLSCAASGFTFRSYGMSWVRQTPDKRLEWVATISGGGSYTYYPDSVKGRFTISRDNAKNTLYLQMSSLKSEDTAMYYCAVSYDGAMDYWGQGTSVTVSS
VL: DVLMTQTPLSLPVSLGDQASISCRSSQSIVHSNGNTYLEWYLQKPGQSPKLLIYKVSNRFSGVPDRFSGSGSGTDFTLKISRVEAEDLGLYYCFQGSHVPWTFGGGTKLEIK
On to B8, for which, in assay [1], the Kd was found to be 108 nM, the koff amounted to 0.02 s⁻¹ and the kon is 200000 M⁻¹ s⁻¹.

B9: 26C1 (antibody, mouse IgG2a, V domains shown)
VH: EVHLQQSGAELVRSGASVKLSCTASGFNIKDYYMYWVKQRPEQGLEWIGWIDPENGDTEYFPKFQGKATMTADTSSKTAYLQLSSLTSEDTAVYYCNAWRARATNSALDYWGQGTSVTVSS
VL: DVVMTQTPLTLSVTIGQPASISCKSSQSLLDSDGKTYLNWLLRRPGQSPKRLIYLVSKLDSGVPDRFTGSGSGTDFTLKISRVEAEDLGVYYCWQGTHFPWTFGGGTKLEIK
notes: recombinant murine IgG2a/kappa; label without subclone
In the case of B9, in assay [1], the Kd was 17 nM, the off-rate (koff) is 0.0007 s⁻¹ and the kon was 40000 M⁻¹ s⁻¹.
